Measurements published in patent EP4624492A1 (Shanghai Hongcheng Biopharmaceutical Co., Ltd., dated 2025).

Columns and labels:
human CCR8 [1] = target: T1, human CCR8 (human, UniProt P51685 1-355); experiment: flow cytometry, competition with 10 nM AF647-human CCL1 on 293F-hCCR8 cells
T1 construct: whole, on cells; the cell line is named under assay; also called hCCR8

human CCR8 [2] = target: T1, human CCR8; experiment: flow cytometry on 293F-hCCR8 cells
human CCR8 [3] = target: T1, human CCR8; experiment: cell-based or functional assay
human CCR8 [4] = target: T1, human CCR8; experiment: cell-based or functional assay; remark: listed apart in the source

T1 sequence (P51685 whole entry): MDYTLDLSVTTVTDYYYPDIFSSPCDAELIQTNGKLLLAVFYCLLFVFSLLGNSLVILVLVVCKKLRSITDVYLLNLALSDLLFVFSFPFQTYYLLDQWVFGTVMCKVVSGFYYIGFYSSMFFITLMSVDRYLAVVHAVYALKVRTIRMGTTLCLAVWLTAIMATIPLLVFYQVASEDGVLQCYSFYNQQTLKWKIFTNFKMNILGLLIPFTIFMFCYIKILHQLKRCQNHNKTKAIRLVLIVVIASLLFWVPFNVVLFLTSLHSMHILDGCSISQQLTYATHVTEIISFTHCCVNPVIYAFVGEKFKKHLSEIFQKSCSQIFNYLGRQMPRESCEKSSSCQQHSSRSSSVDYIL

Row | Binder | IC50 (human CCR8 [1]) [µg/mL] | EC50 (human CCR8 [2]) [µg/mL] | IC50 of blockade of CCL1-induced β-arrestin recruitment (human CCR8 [3]) [µg/mL] | EC50 of activation of Jurkat-human FcγRIIIa(158V)-NFAT with 293F-hCCR8 target cells (human CCR8 [4]) [µg/mL]
1 | 563E10E12_hzH3L0_hIgG1 (antibody, Humanized, hIgG1/K) heavy: not shown light: DIVMTQSPLSLPVTPGEPASISCRSSKSLLHSNGITYLFWYLQKPGQSPQLLIYQMSNLASGVPDRFSGSGSGTDFTLKISRVEAEDVGVYYCAQSLELPLTFGGGTKVEIKRTVAAPSVFIFPPSDEQLKSGTASVVCLLNNFYPREAKVQWKVDNALQSGNSQESVTEQDSKDSTYSLSSTLTLSKADYEKHKVYACEVTHQGLSSPVTKSFNRGEC | 0.0761 | 0.133 | 1.16 | 0.0357
2 | 563E10E12_hzH0L1_hIgG1 (antibody) heavy: not shown light: DVVMTQSPLSLPVTPGEPASISCRSSKSLLHSNGITYLFWYLQKPGQSPQLLIYQMSNLASGVPDRFSGSGSGTDFTLKISRVEAEDVGVYYCAQSLELPLTFGGGTKVEIKRTVAAPSVFIFPPSDEQLKSGTASVVCLLNNFYPREAKVQWKVDNALQSGNSQESVTEQDSKDSTYSLSSTLTLSKADYEKHKVYACEVTHQGLSSPVTKSFNRGEC | 0.0862 | 0.118 | 3.65 | 0.0299
3 | 563E10E12_hzH2L0_hIgG1 (antibody, Humanized, hIgG1/K) heavy: not shown light: DIVMTQSPLSLPVTPGEPASISCRSSKSLLHSNGITYLFWYLQKPGQSPQLLIYQMSNLASGVPDRFSGSGSGTDFTLKISRVEAEDVGVYYCAQSLELPLTFGGGTKVEIKRTVAAPSVFIFPPSDEQLKSGTASVVCLLNNFYPREAKVQWKVDNALQSGNSQESVTEQDSKDSTYSLSSTLTLSKADYEKHKVYACEVTHQGLSSPVTKSFNRGEC | 0.0689 | 0.103 | 1.46 | 0.0281
4 | 563E10E12_hzH6L1_hIgG1 (antibody, Humanized, hIgG1/K) heavy: not shown light: DVVMTQSPLSLPVTPGEPASISCRSSKSLLHSNGITYLFWYLQKPGQSPQLLIYQMSNLASGVPDRFSGSGSGTDFTLKISRVEAEDVGVYYCAQSLELPLTFGGGTKVEIKRTVAAPSVFIFPPSDEQLKSGTASVVCLLNNFYPREAKVQWKVDNALQSGNSQESVTEQDSKDSTYSLSSTLTLSKADYEKHKVYACEVTHQGLSSPVTKSFNRGEC | 0.0579 | 0.0593 | 1.65 | –
5 | 563E10E12_hzH0L0_hIgG1 (antibody, Humanized, hIgG1/K) heavy: not shown light: DIVMTQSPLSLPVTPGEPASISCRSSKSLLHSNGITYLFWYLQKPGQSPQLLIYQMSNLASGVPDRFSGSGSGTDFTLKISRVEAEDVGVYYCAQSLELPLTFGGGTKVEIKRTVAAPSVFIFPPSDEQLKSGTASVVCLLNNFYPREAKVQWKVDNALQSGNSQESVTEQDSKDSTYSLSSTLTLSKADYEKHKVYACEVTHQGLSSPVTKSFNRGEC | 0.0958 | 0.107 | 3.51 | 0.0286
6 | 563E10E12_hzH6L0_hIgG1 (antibody, Humanized, hIgG1/K) heavy: not shown light: DIVMTQSPLSLPVTPGEPASISCRSSKSLLHSNGITYLFWYLQKPGQSPQLLIYQMSNLASGVPDRFSGSGSGTDFTLKISRVEAEDVGVYYCAQSLELPLTFGGGTKVEIKRTVAAPSVFIFPPSDEQLKSGTASVVCLLNNFYPREAKVQWKVDNALQSGNSQESVTEQDSKDSTYSLSSTLTLSKADYEKHKVYACEVTHQGLSSPVTKSFNRGEC | 0.0543 | 0.0569 | 1.84 | –
7 | 563E10E12_hzH2L1_hIgG1 (antibody, Humanized, hIgG1/K) heavy: not shown light: DVVMTQSPLSLPVTPGEPASISCRSSKSLLHSNGITYLFWYLQKPGQSPQLLIYQMSNLASGVPDRFSGSGSGTDFTLKISRVEAEDVGVYYCAQSLELPLTFGGGTKVEIKRTVAAPSVFIFPPSDEQLKSGTASVVCLLNNFYPREAKVQWKVDNALQSGNSQESVTEQDSKDSTYSLSSTLTLSKADYEKHKVYACEVTHQGLSSPVTKSFNRGEC | 0.064 | 0.136 | 1.52 | 0.0305
8 | 27B9-1G3_hzH1L2_hIgG1 (antibody, V domains shown, Humanized, hIgG1/K; hzVH01 + hzVL02) VH: QVQLVQSGAEVKKPGSSVKVSCKASGGTFSGYNMNWVRQAPGQGLEWMGNIDPYYGGTNYNQKFKGRVTITADKSTSTAYMELSSLRSEDTAVYYCARETWFITTGVIKKGFYFDYWGQGTTVTVSS VL: EIVLTQSPATLSLSPGERATLACSASSIISSNYLHWYQQKPGQAPRLLIYRTSSLASGIPARFSGSGSGTDYTLTISSLEPEDFAVYYCQQGSSIPRTFGGGTKVEIKR | 0.291 | 0.237 | – | –
9 | 27B9-1G3_hzH2L3_hIgG1 (antibody, V domains shown, Humanized, hIgG1/K; hzVH02 + hzVL03) VH: QVQLVQSGAEVKKPGSSVKVSCKASGYSFTGYNMNWVRQAPGQGLEWMGNIDPYYGGTNYNQKFKGRVTITADKSTSTAYMELSSLRSEDTAVYYCARETWFITTGVIKKGFYFDYWGQGTTVTVSS VL: EIVLTQSPATLSLSPGERATLACSASSIISSNYLHWYQQKPGQSPRLLIYRTSSLASGVPARFSGSGSGTSYTLTISSLEPEDFAVYYCQQGSSIPRTFGGGTKVEIKR | 0.192 | 0.212 | – | –
10 | 27B9-1G3_hzH3L3_hIgG1 (antibody, V domains shown, Humanized, hIgG1/K; hzVH03 + hzVL03) VH: QVQLVQSGAEVKKPGSSVKVSCKASGGTFSGYNMNWVRQAPGQGLEWMGNIDPYYGGTNYNQKFKGKATITADKSTSTAYMELSSLRSEDTAVYYCARETWFITTGVIKKGFYFDYWGQGTTVTVSS VL: EIVLTQSPATLSLSPGERATLACSASSIISSNYLHWYQQKPGQSPRLLIYRTSSLASGVPARFSGSGSGTSYTLTISSLEPEDFAVYYCQQGSSIPRTFGGGTKVEIKR | 0.189 | 0.198 | – | –
11 | 27B9-1G3_hzH3L2_hIgG1 (antibody, V domains shown, Humanized, hIgG1/K; hzVH03 + hzVL02) VH: QVQLVQSGAEVKKPGSSVKVSCKASGGTFSGYNMNWVRQAPGQGLEWMGNIDPYYGGTNYNQKFKGKATITADKSTSTAYMELSSLRSEDTAVYYCARETWFITTGVIKKGFYFDYWGQGTTVTVSS VL: EIVLTQSPATLSLSPGERATLACSASSIISSNYLHWYQQKPGQAPRLLIYRTSSLASGIPARFSGSGSGTDYTLTISSLEPEDFAVYYCQQGSSIPRTFGGGTKVEIKR | 0.15 | 0.2 | – | –
12 | 27B9-1G3_hzH3L1_hIgG1 (antibody, V domains shown, Humanized, hIgG1/K; hzVH03 + hzVL01) VH: QVQLVQSGAEVKKPGSSVKVSCKASGGTFSGYNMNWVRQAPGQGLEWMGNIDPYYGGTNYNQKFKGKATITADKSTSTAYMELSSLRSEDTAVYYCARETWFITTGVIKKGFYFDYWGQGTTVTVSS VL: EIVLTQSPATLSLSPGERATLSCSASSIISSNYLHWYQQKPGQAPRLLIYRTSSLASGIPARFSGSGSGTDFTLTISSLEPEDFAVYYCQQGSSIPRTFGGGTKVEIKR | 0.121 | 0.175 | – | –
13 | 27B9-1G3_hzH4L1_hIgG1 (antibody, V domains shown, Humanized, hIgG1/K; hzVH04 + hzVL01) VH: QVQLVQSGAEVKKPGSSVKVSCKASGYSFTGYNMNWVRQAPGQGLEWMGNIDPYYGGTNYNQKFKGKATITADKSTSTAYMELSSLRSEDTAVYYCARETWFITTGVIKKGFYFDYWGQGTTVTVSS VL: EIVLTQSPATLSLSPGERATLSCSASSIISSNYLHWYQQKPGQAPRLLIYRTSSLASGIPARFSGSGSGTDFTLTISSLEPEDFAVYYCQQGSSIPRTFGGGTKVEIKR | 0.163 | 0.178 | – | –
14 | 27B9-1G3_hzH2L2_hIgG1 (antibody, V domains shown, Humanized, hIgG1/K; hzVH02 + hzVL02) VH: QVQLVQSGAEVKKPGSSVKVSCKASGYSFTGYNMNWVRQAPGQGLEWMGNIDPYYGGTNYNQKFKGRVTITADKSTSTAYMELSSLRSEDTAVYYCARETWFITTGVIKKGFYFDYWGQGTTVTVSS VL: EIVLTQSPATLSLSPGERATLACSASSIISSNYLHWYQQKPGQAPRLLIYRTSSLASGIPARFSGSGSGTDYTLTISSLEPEDFAVYYCQQGSSIPRTFGGGTKVEIKR | 0.299 | 0.19 | – | –
15 | 27B9-1G3_hzH1L3_hIgG1 (antibody, V domains shown, Humanized, hIgG1/K; hzVH01 + hzVL03) VH: QVQLVQSGAEVKKPGSSVKVSCKASGGTFSGYNMNWVRQAPGQGLEWMGNIDPYYGGTNYNQKFKGRVTITADKSTSTAYMELSSLRSEDTAVYYCARETWFITTGVIKKGFYFDYWGQGTTVTVSS VL: EIVLTQSPATLSLSPGERATLACSASSIISSNYLHWYQQKPGQSPRLLIYRTSSLASGVPARFSGSGSGTSYTLTISSLEPEDFAVYYCQQGSSIPRTFGGGTKVEIKR | 0.228 | 0.175 | – | –
16 | 27B9-1G3_hzH1L1_hIgG1 (antibody, V domains shown, Humanized, hIgG1/K; hzVH01 + hzVL01) VH: QVQLVQSGAEVKKPGSSVKVSCKASGGTFSGYNMNWVRQAPGQGLEWMGNIDPYYGGTNYNQKFKGRVTITADKSTSTAYMELSSLRSEDTAVYYCARETWFITTGVIKKGFYFDYWGQGTTVTVSS VL: EIVLTQSPATLSLSPGERATLSCSASSIISSNYLHWYQQKPGQAPRLLIYRTSSLASGIPARFSGSGSGTDFTLTISSLEPEDFAVYYCQQGSSIPRTFGGGTKVEIKR | 0.31 | 0.188 | – | –
17 | 27B9-1G3_hzH4L3_hIgG1 (antibody, V domains shown, Humanized, hIgG1/K; hzVH04 + hzVL03) VH: QVQLVQSGAEVKKPGSSVKVSCKASGYSFTGYNMNWVRQAPGQGLEWMGNIDPYYGGTNYNQKFKGKATITADKSTSTAYMELSSLRSEDTAVYYCARETWFITTGVIKKGFYFDYWGQGTTVTVSS VL: EIVLTQSPATLSLSPGERATLACSASSIISSNYLHWYQQKPGQSPRLLIYRTSSLASGVPARFSGSGSGTSYTLTISSLEPEDFAVYYCQQGSSIPRTFGGGTKVEIKR | 0.167 | 0.22 | – | –
18 | 27B9-1G3_hzH2L1_hIgG1 (antibody, V domains shown, Humanized, hIgG1/K; hzVH02 + hzVL01) VH: QVQLVQSGAEVKKPGSSVKVSCKASGYSFTGYNMNWVRQAPGQGLEWMGNIDPYYGGTNYNQKFKGRVTITADKSTSTAYMELSSLRSEDTAVYYCARETWFITTGVIKKGFYFDYWGQGTTVTVSS VL: EIVLTQSPATLSLSPGERATLSCSASSIISSNYLHWYQQKPGQAPRLLIYRTSSLASGIPARFSGSGSGTDFTLTISSLEPEDFAVYYCQQGSSIPRTFGGGTKVEIKR | 0.269 | 0.246 | – | –
19 | 27B9-1G3_hzH4L2_hIgG1 (antibody, V domains shown, Humanized, hIgG1/K; hzVH04 + hzVL02) VH: QVQLVQSGAEVKKPGSSVKVSCKASGYSFTGYNMNWVRQAPGQGLEWMGNIDPYYGGTNYNQKFKGKATITADKSTSTAYMELSSLRSEDTAVYYCARETWFITTGVIKKGFYFDYWGQGTTVTVSS VL: EIVLTQSPATLSLSPGERATLACSASSIISSNYLHWYQQKPGQAPRLLIYRTSSLASGIPARFSGSGSGTDYTLTISSLEPEDFAVYYCQQGSSIPRTFGGGTKVEIKR | 0.162 | 0.196 | – | –
